Measured values reported in the nanobody polyreactivity screen of Harvey et al. (2022).

Experiment: yeast display, Sf9 membrane polyspecificity reagent, FACS + sequencing; frameworks hold sequencing errors
How it was run: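 In a synthetic yeast display library (Saccharomyces cerevisiae BJ5465), nanobody expression was induced with galactose for 36–48 hours. FACS gates were set low and high (top ~1%) using anti-HA fluorescence for expression and streptavidin fluorescence for binding of the Sf9 membrane reagent. Each polyreactivity label is drawn from the gate of origin.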

Row | Sequence | polyreactivity (PSR sort gate)
1 | QVQLVESGGGLVQAGGSLRLSCAASGFIFRRYAMGWYRQAPGKERELVAAISGSGGRTYYADSVKGRFTISRDNAKNTVYLQMNSLKPEDTAVYYCAATYQYLKSGYYWGQGTQVTVSS | high polyreactivity
2 | QVQLVESGGGLVQAGGSLRLSCAASGFIFRRYAMGWYRQAPGKERELVAAITWSGGSTYYADSVKGRFTISRDNAKNTVYLQMNSLKPEDTAVYYCNRASLPSVWGYDYWGQGTQVTVSS | high polyreactivity
3 | QVQLVESGGGLVQAGGSLRLSCAASGFIFRRYAMGWYRQAPGKERELVAIITSGVRTYYADSVKGRFTISRDNAKNTVYLQMNSLKPEDTAVYYCASRVKDYPEYDYWGQGTQVTVSS | low polyreactivity
4 | QVQLVESGGGLVQAGGSLRLSCAASGFIFRRYAMGWYRQAPGKERELVAVIRSSGGSTYYADSVKGRFTISRDNAKNTVYLQMNSLKPEDTAVYYCAAVDARSGGYYWTLRYYYWGQGTQVTVSS | high polyreactivity
5 | QVQLVESGGGLVQAGGSLRLSCAASGFIFRRYTMGWYRQAPGKERELVAAISSRGGSTYYADSVKGRFTISRDNAKNTVYLQMNSLKPEDTAVYYCNAGLGVRRRYDYWGQGTQVTVSS | high polyreactivity
6 | QVQLVESGGGLVQAGGSLRLSCAASGFIFRSNAMGLYRQAPGKEREFVAAISSRGGSTTYEDSVKGRFTISRDNAKNTVYLQMNSLKPEDTAVYYCARDWYYYPQYRQRYYYWGQGTQVTVSS | high polyreactivity
7 | QVQLVESGGGLVQAGGSLRLSCAASGFIFRSYAMGWYRQAPGKERELVAAITHTGTTYYADSVKGRFTISRDNAKNSVYLQMNSLKPEDTAVYYCNANYYRTHYVYWGQGTQVTVSS | high polyreactivity
8 | QVQLVESGGGLVQAGGSLRLSCAASGFIFRSYAMGWYRQAPGKERELVAANSSSGGRTYYADSVKGRFTISRDNAKNTVYLQMNSLKPEDTAVYYCATSLYTDNSWDNYWGQGTQVTVSS | high polyreactivity
9 | QVQLVESGGGLVQAGGSLRLSCAASGFIFRTYAMGWYRQAPGKERELVAAISGTTGSTYYADSVKGRFTISRDNAKYTVYLQMNSLKPEDTAVYFCAADYYWYIRYDYWGQGTQVTVSS | low polyreactivity
10 | QVQLVESGGGLVQAGGSLRLSCAASGFIFRTYAMGWYRQAPGKERELVAAISRGGGTTYYADSVKGRFTISRDNAKNTVYFQMNSLKPEDTAFYYCAAYSQYLKRDYWGQGTQVTVSS | high polyreactivity
11 | QVQLVESGGGLVQAGGSLRLSCAASGFIFRTYAMGWYRQEPGKERELVAAITYSAGSTYYADSVKGRFTISRDNAKNTVYLQMNSLKPEDTADYYCNVRKTWYGYSVTGRYDYWGQGTQVTVSS | low polyreactivity
12 | QVQLVESGGGLVQAGGSLRLSCAASGFIFRTYSMGWYRQAPGKERELVAAISGTTGSTYYADSVKGRFTISRDNAKNTVYLQMNRLKPEDTAVYYCAADYYWYIRYDYWGQGTQVTVSS | low polyreactivity
13 | QVQLVESGGGLVQAGGSLRLSCAASGFIFRVYAMGWYRQAPGKERELVAAMSYSGGSTYYADSVKGRFTISRDNAKNTVYLQMNSLKPEDTAVYYCAAESYVSRYPYGYWGQGTQVTVSS | high polyreactivity
14 | QVQLVESGGGLVQAGGSLRLSCAASGFIFRVYTMGWYRQAPGKERELVAAISYRGGRTYYADSVKGRFTISRDNAKNTVYLQMNSQKPEDTAVYYCAADRVNREFDYWGQGTQVTVSS | high polyreactivity
15 | QVQLVESGGGLVQAGGSLRLSCAASGFIFRWYAKGWYRQAPGKERELVATITRSGGSTYYADSVKGRFTSSRDNAKNTVYLQMNSLKPEDTAVYYCNAGYSYKYYYWGQGTQVTVSS | high polyreactivity
16 | QVQLVESGGGLVQAGGSLRLSCAASGFIFRWYAMGWYRQAPGKERELVATITGGGSTYYADSVKGRFTISRDNAKNTVYLQMNSLKPEDTAVYYCNARQIWKYSVRDDYWGQGTQVTVSS | high polyreactivity
17 | QVQLVESGGGLVQAGGSLRLSCAASGFIFRWYTMGWYRQAPGKERELVAAISWRSGSTSYADSVMGRFTISRDNAKNTVYFQMNSLKPEDSAGYYCNADYSSFWTSYDYWGQGTQVTVSS | high polyreactivity
18 | QVQLVESGGGLVQAGGSLRLSCAASGFIFRYNAMGWYRQAPGKERELVARITSSGGTTYYADSVKGRFTISRDNAKNTVYLQMNSLKPEDTAVYYCAITWRKYYPPYYYWGQGTQVTVSS | high polyreactivity
19 | QVQLVESGGGLVQAGGSLRLSCAASGFIFRYNAMGWYRQAPGKESELVAAISSSGTTNYADSVKGRFTISRDNAKNTVYLQMNSLKPEDTAVYYCAARRSYARRFKNSMEYWGEGTQVTVSS | high polyreactivity
20 | QVQLVESGGGLVQAGGSLRLSCAASGFIFRYNAMGWYRQRPGKERELVAVITSGGRTYYADSVKGRFTISRDNAKNTVYLQMNSLKPEDTAFYYCNADSRHRRNYDYWGQGTQVTVSS | high polyreactivity
21 | QVQLVESGGGLVQAGGSLRLSCAASGFIFRYYALGWYRQAPGKERELVAAISWRGGTTYYADSVKGRFTISRDNAKNTVYLQMQSLKPEDTAVYYCAADWQWDLGPYIYQVEYWGQGTLVTVSS | high polyreactivity
22 | QVQLVESGGGLVQAGGSLRLSCAASGFIFRYYAMGRYRPAPGKERELVAAISKRGGGTYYADSVKGRFTISRDNAKNTVYLQMNSLKPEDTAVYYCKKDGGYGTGSSREYDSWGQGTQVTVSS | high polyreactivity

Row | Sequence | polyreactivity (PSR sort gate)
23 | QVQLVESGGGLVQAGGSLRLSCAASGFIFRYYAMGWYRQAPGKERELVAAINASGGRTYYADSVKGRFTISRDNARNTVYFQMNSLKPEDSAVYYCAAYRSYQTFDYWGQGTQVTVSS | high polyreactivity
24 | QVQLVESGGGLVQAGGSLRLSCAASGFIFRYYAMGWYRQAPGKERELVAAISYSGGSTYYADSVKGRFTISRDTAKNTVYLQMNSLKPEDTAVYYCAAVLRTRDHPQPNYVYWGQGTQVTVSS | high polyreactivity
25 | QVQLVESGGGLVQAGGSLRLSCAASGFIFRYYAMGWYRQAPGKERELVARINKSGGYTYYADSVKGRFTISRDNAKNTVYLQMNSLKPEDTAVYYCNRVRVFSVPFDYWGQGTQVTVSS | high polyreactivity
26 | QVQLVESGGGLVQAGGSLRLSCAASGFIFRYYAMGWYRQAPGNERELVAAISYSGGSTYYADSVKGRFTISRDNAKNTVYLQMNSLKPEDTAVYYGAAVLRTRDHPQPNYEYWGQGTQVTVSS | high polyreactivity
27 | QVQLVESGGGLVQAGGSLRLSCAASGFIFRYYARGWYRQAPGKERELVAAISSTGGSTSYADSVKGRFTISRDNAKNTVYLQLNSQKPEDTAVYDCAADYWIRRRTYGQLYRPYYYWGQGTQVTVSS | high polyreactivity
28 | QVQLVESGGGLVQAGGSLRLSCAASGFIFRYYTMGWYRQAPGKERELVATITSGGSTYYADSVKGRFTISCDNAKNTVYLQMNSLKPEDTAVYYCAKVRDVLWRFNYWGQGTQVTVSS | high polyreactivity
29 | QVQLVESGGGLVQAGGSLRLSCAASGFIFSAYSMGWYRPEPGKERELVAAISYSGGTTYYADSVKGRFTISRDNAKNTLYLQMNSLKPEDTAVYYCAAGVGYWGQGTQVTVSS | high polyreactivity
30 | QVQLVESGGGLVQAGGSLRLSCAASGFIFSGNAMGWYILAPGKERELVAGIRSLGGTTSYADSVKGRFTISRDNAKNTVYLQMNSMKPEDTAVYYCAAGYGAEFDYWGQGTQVTVSS | low polyreactivity
31 | QVQLVESGGGLVQAGGSLRLSCAASGFIFSGNAMGWYRQAPGKERELVAAISWSGTSTFYADSVKGRFTISRDNAKNTVYLQMNSLKPEDTAVYYCAAETYYSYWYRPHYDYWGQGTQVTVSS | low polyreactivity
32 | QVQLVESGGGLVQAGGSLRLSCAASGFIFSGYAMGWYRQAPGKERELVAAITWSGSNTFYADSVKGRFTISRDNPKNTVYLQMNSLKPEDTAVYYCNGVSKYIRSDYYYWGQGTQVTVSS | high polyreactivity
33 | QVQLVESGGGLVQAGGSLRLSCAASGFIFSGYAMGWYRQAPGKERELVASISWSGARTNYADSVKGRFTISRDNAKNTVYLQMNSLKPEDTAVYYCAAQVGRGYEVYPVYKYGYWGQGTQVTVSS | high polyreactivity
34 | QVQLVESGGGLVQAGGSLRLSCAASGFIFSGYAMGWYRQAPGKEREVVATISRGGSTTYYADSVKGRFTISRDNAKNTVYLQKTSLKPEETGAYYCATVGYPYRPVYIRRPYRYNSWGQGTQVTVSS | high polyreactivity
35 | QVQLVESGGGLVQAGGSLRLSCAASGFIFSGYNMGWYRQAPGKERELVAAITKRGGRTYYADSVKWRFTISRDNAKNTVYLQMNSLKPEDTAVYYCNVDVKVYSDETTDGDYWGQGTQVTVSS | high polyreactivity
36 | QVQLVESGGGLVQAGGSLRLSCAASGFIFSHYAMGWYRQAPGKERELVAAIRSGGTTNYADSVKGRFTISRDNAKHTVYLQMNSLKPEDTAVYYCAASSRRSWTYDYWGQGTQVTVSS | high polyreactivity
37 | QVQLVESGGGLVQAGGSLRLSCAASGFIFSIYAMGWYRQAPGKERELVAAISKSGGRTYYADSVKGRFTISRDNAKNTVYLQMNSLKPEDTAVYYCAVDPYYKYDYWGQGTQVTVSS | high polyreactivity
38 | QVQLVESGGGLVQAGGSLRLSCAASGFIFSNYAMGWYRQAPGKERELVAAISWSGGNTYYADSVKGRFTISRDNAKNTFYLQMNSLKPEDTAVYYCNRVKAYYRWFLPRYQYNYWGQGTQVTVSS | high polyreactivity
39 | QVQLVESGGGLVQAGGSLRLSCAASGFIFSPYAMGWYRQAPGKERELVAAISSGVGTRTYYADSVKGRFTISRDNAKNNVYLQINSLKPEDTAVYYCAARIPAWRAAERGGYWGQGTQVTVSS | high polyreactivity
40 | QVQLVESGGGLVQAGGSLRLSCAASGFIFSRNVMGWYRQAPGKERELVAAISRSGGSTYYADSVKGRFTISRDNAKNTVYLQMNSLKTEYTAVYYCAASRINNVYLLKGDYWGQGTQVTVSS | high polyreactivity
41 | QVQLVESGGGLVQAGGSLRLSCAASGFIFSRYAMGWYRQAPGKERELVAAINLSGTSTYYADSVKGRFTISRDNAKNTVYLQMNSLKPEDTAVYYCAATSSYIYPYGYWGQGTQVTVSS | high polyreactivity
42 | QVQLVESGGGLVQAGGSLRLSCAASGFIFSRYAMGWYRQAPGKERELVAAISDYGGRTYYADSVKGRFTISRDNAKNTVYLQMNSLKPEDTAVYYCAADLEGYYPYEYWGQGTKVTVSS | high polyreactivity
43 | QVQLVESGGGLVQAGGSLRLSCAASGFIFSRYAMGWYRQAPGKERELVAAISRGGSTYYADYVKGRFTISRDNAKNTVYLQMNSLKPEDTAVYYCAVRQIVRYYYWGQGTQVTVSS | high polyreactivity
